Laboratory results reported in patent US20230414735A1, “NEOANTIGENS AND METHODS OF THEIR USE” (priority 2016, published 2023).

Key:
HLA-B08:01 (human) [1] = assay: pMHC-I dissociation, 125I-b2m; details: remark: other sources report otherwise
HLA-B08:01 (human) [2] = assay: competition with 125I probe peptide on purified HLA
HLA-B08:01 (human) [3] = assay: competition with 125I probe peptide for purified HLA class I; details: remark: other sources report otherwise

Stability (T1/2 (h)) (HLA-B08:01 (human) [1]) [h]	IC50 (HLA-B08:01 (human) [2]) [nM]	IC50 (HLA-B08:01 (human) [3]) [nM]	Binder
0	–	–	LPRKPTRAA
0	–	–	GMNWRPILTI
–	0.4	–	SLRRKYLRV
–	–	80	CMGSMNRRPI
0	–	1	MNWRPILTI
0	–	–	MALNSEALSV
–	–	20	NQRPILTII
